Measured values as given in patent publication US11994512B2, “Single-cell genomic methods to generate ex vivo cell systems that recapitulate in vivo biology with improved fidelity” (Massachusetts Institute of Technology, priority 2018, dated 2024).

Test system: intracellular proteome of ENR+CD and ENR organoids
Test: LC-MS/MS TMT proteomics of ENR+CD versus ENR organoids
Assay type: cell-based, C57BL/6 mice
Settings: for Average logFC / M1-1 Log2 Median Normalized / M1-2 Log2 Median Normalized / M2-1 Log2 Median Normalized / M2-2 Log2 Median Normalized: protein abundance, ENR+CD versus ENR organoids; for Average logFC: aggregate of the four sample pairs; for M1-1 Log2 Median Normalized: replicate M1-1; for M1-1 Log2 Median Normalized / M1-2 Log2 Median Normalized / M2-1 Log2 Median Normalized / M2-2 Log2 Median Normalized: log2 ratio; for M1-2 Log2 Median Normalized: replicate M1-2; for M2-1 Log2 Median Normalized: replicate M2-1; for M2-2 Log2 Median Normalized: replicate M2-2; for change: up = enriched in ENR+CD, down = enriched in ENR, FDR<0.05 and log fold change cut-off

| Molecule | Average logFC | M1-1 Log2 Median Normalized | M1-2 Log2 Median Normalized | M2-1 Log2 Median Normalized | M2-2 Log2 Median Normalized | change |
| --- | --- | --- | --- | --- | --- | --- |
| Q3UGF1 (protein, UniProt Q3UGF1 1-1341, looked up, full-length) MKRVFSLLEKSWLGAPIQFAWQKSSGNYLAVTGADYIVKIFDRHGQKRSEISLPGNCVTMDWDKDGDILAVIAEKSSCIYLWDANTNKTSQLDNGMRDQMSFLLWSKIGSFLAVGTIKGNLLIYNHQTSRKIPVLGKHTKKITCGCWNSENLLALGGEDKMITVSNQEGDTIRQTPVKSEPSDIKFSMSKTDERISSAENTISAVVGKKMLFLFHLNEPDNPVDLEFQQAYGNIVCYSWYGDGYIMIGFSRGTFLAISTHFPEVGQEIFKARDHKDNLTSVALSQTLNKAATCGDNCIKIHDLTELRDMYAIINLDDENKGLGTLSWTDDGQLLALSTQRGSLHVFLTKLPILGDACHTRIAYLTSLLEVTVANLIEGEPPITVSVDVEPTFVAVGLYHLAVGMNNRAWFYVLGENVVKKLKDVEYLGTVASICLHSDYAAALFEGKIQLHLIENEMLDAQEERETRLFPAVDDKCRILCHALTSDFLIYGTDTGIIHYFFIEDWQFVNDYRHPVGVKKLFPDPNGTRLVFIDEKSDGFVYCPVNDATYEIPDFSPTIKGVLWENWPMDKGVFIAYDDDKVYTYAFHKDTIQGSKVILAGSTKLPFSHKPLLLYNGELTCQTQSGKINSIYLSTHSFLGSMKDTEPTDLRQMLTQTLLLKRFSDAWDICKMLNDRTSWSELAKACLHHMEVEFAIRVSRTMGDVGTVMSLEQIKGIEDYNLLAGHLAMFTNDFNLAQDLYLASNCPVAALEMRRDLQHWDSALQLAKRLAPDQIPFISKEYAIQLEFTGDYVNALAHYEKGITGDNKEHDEVCLAGVAQMSIRMGDIRRGANQALKHPSRVLKRDCGAILENMKQFSEAAQLYEKGQYYDRAASVYIRCKNWAKVGELLPHVSSPKIHLQYAKAKEADGRYKEAVVAYENAKQWNSVIRIYLDHLNNPEKAVSIVRETQSLDGAKMVARFFLQLGDYGSAIQFLVLSKCNNEAFTLAQQHNKMEIYADIIGAEDTTNEDYQSIALYFEGEKRHFQAGKFFLLCGQYSRALKHFLKCPSSEDNVAIEMAIETVGQAKDELLTNQLIDHLMGESDGMPKDAKYLFRLYMALKQYREAARTAIIIAREEQSAGNYRNAHDVLFSMYAELKAQKIKIPSEMATNLMILHSYILVKIHVKSGDHMKGARMLIRVANNISKFPSHIVPILTSTVIECHRAGLKNSAFSFAAMLMRPEYRNKIDAKYKKKIEAMVRRPDTSETEEATTPCPFCQFLLPECELLCPGCKNNIPYCIATGRHMLKDDWTMCPHCGFPALYSEFKILLNSESTCPMCSERLNSSQLKKITDCSQYLRTEME | −1.153 | −0.199 | −0.895 | −1.3115 | −2.206 | down |
| Q07797 (protein, UniProt Q07797 1-577, looked up, full-length) MALLWLLSVFLLVPGTQGTEDGDMRLVNGASANEGRVEIFYRGRWGTVCDNLWNLLDAHVVCRALGYENATQALGRAAFGPGKGPIMLDEVECTGTESSLASCRSLGWMVSRCGHEKDAGVVCSNDTTGLHILDLSGELSDALGQIFDSQQGCDLFIQVTGQGYEDLSLCAHTLILRTNPEAQALWQVVGSSVIMRVDAECMPVVRDFLRYFYSRRIEVSMSSVKCLHKLASAYGATELQDYCGRLFATLLPQDPTFHTPLDLYAYARATGDSMLEDLCVQFLAWNFEPLTQSESWSAVPTTLIQALLPKSELAVSSELDLLKAVDQWSTETIASHEDIERLVEQVRFPMMLPQELFELQFNLSLYQDHQALFQRKTMQALEFHTVPVEVLAKYKGLNLTEDTYKPRLYTSSTWSSLVMASTWRAQRYEYNRYNQLYTYGYGSVARYNSYQSFQTPQHPSFLFKDKQISWSATYLPTMQSCWNYGFSCTSNELPVLGLTTSSYSNPTIGYENRVLILCGGYSVVDVTSFEGSKAPIPTALDTNSSKTPSLFPCASGAFSSFRVVIRPFYLTNSTDMV | 1.146 | 1.212 | 1.255 | 1.1065 | 1.011 | up |
| Q3UA16 (protein, UniProt Q3UA16 1-226, looked up, full-length) MGEDELALLNQSINEFGDKFRNRLDDNHSQVLGLRDAFKDSMKAFSEKMSLKLKEEERMTEMILEYKNQLCKQNKLIQEKKENVLKMIAEVKGKEQESEELTAKIQELKEEYARKRETISTANKANEERLKGLQKSADLYRDYLGLEIRKIHGNKLQFIFTSIDPKNPESPYMFSMSINEAKEYEVYDSSPHLECLAEFQEKVRKTNNFSAFLANIRKAFIAKVHN | −1.826 | −1.924 | −0.747 | −1.8235 | −2.598 | down |
| Q08652 (protein, UniProt Q08652 1-134, looked up, full-length) MTKDQNGTWEMESNENFEGYMKALDIDFATRKIAVRLTQTKIITQDGDNFKTKTNSTFRNYDLDFTVGVEFDEHTKGLDGRHVKTLVTWEGNTLVCVQKGEKENRGWKQWVEGDKLYLELTCGDQVCRQVFKKK | −1.48 | −1.364 | −2.41 | −1.7785 | −0.366 | down |
| Q3U0B3 (protein, UniProt Q3U0B3 1-260, looked up, full-length) MTRAGMERWRDRLALVTGASGGIGAAVARALVQQGLKVVGCARTVGNIEELAAECKSAGYPGTLIPYRCDLSNEEDILSMFSAVRSQHSGVDICINNAGMARPDTLLSGSTSGWKDMFNVNVLALSICTREAYQSMKERNIDDGHIININSMCGHRVPPQSVIHFYSATKYAVTALTEGLRQELLEAQTHIRATCISPGLVETQFAFKLHDKDPGEAAATYEHIKCLRPEDVAEAVIYVLSTPPHVQVGDIQMRPTEQVT | −1.3 | −1.054 | −1.691 | −1.5305 | −0.923 | down |
| Q33DR2 (protein, UniProt Q33DR2 1-409, looked up, full-length) MAMRWSCWRRGCSWRPTAVGSPRRERPGCVEPLGTRAASDTRAQIPYFSLMKILMSASPTMHSISQFHQRTPAMCSCRQTQSGEKYSDPFKLGWRDLKGLYEDIRKELHISTRELKDMSEYYFDGKGKAFRPIIVVLMARACNIHHNNAREMQASQRSIALVAEMIHTATLVHDDVIDDASSRRGKHTVNKIWGEKKAVLAGDLILSAASVALARIGNTAVVSMLAQVIEDLVRGEFLQLGSKENENERFAHYLEKTFKKTASLIANSCKAVSVLGCPDPVVHEIAYQYGKNVGIAFQLIDDVLDFTSCSDQMGKPTSADLKLGIATGPVLFACQQFPEMNAMIMRRFSLPGDVDRARQYVLQSDGVQQTTYLAQQYCHKAVREIRKLRPSTERDALIQLSESVLTRDK | −1.389 | −1.379 | −1.779 | −1.2185 | −1.389 | down |
| Q3U9N9 (protein, UniProt Q3U9N9 1-512, looked up, full-length) MVPSQEEPAAERETNEAQPPGPAPSDDAPLPGPGPSDVSDVAAEKVEVELTRSAGSEPPVPPEGGWGWLVMLAAMWCNGSVFGIQNAYGVLFVSMLDTFKAKDDDNMAFKTAWVGSLSMGMIFFCCPIVSVFTDMFGCRRTAVVGAAVGFIGLMSSSFVSSIEPLYLTYGIIFACGCSFAYQPSLVILGHYFKKRLGLVNGIVTAGSSVFTILLPLLLGNLISSVKLFNTLRILCIFMFVLFLAGFTYRPLVPSTKEKESGGSRSSFFSRRKLSPPKKVFNFALFKETTYAVWAAGIPLALFGYFVPYVHLMNHVKERFQDVNNKEVLFMCIGITSGVGRLLFGRIADYLPGVKKVYLQVLSFFFIGLMSMMIPLCSAFGALIAVCLAMGLFDGCFISIMAPIAFELVGPQDASQAIGFLLGFMSIPMTVGPPIAGLLHDKLGTYDVAFYLAGIPPFVGGVVLCLIPWIHSKKQRKISKNAGGEKMEKMLENQSSLLSGSSGIFKKDSASII | −1.314 | −1.309 | −0.055 | −1.4695 | −2.424 | down |
| Q05186 (protein, UniProt Q05186 1-325, looked up, full-length) MARGGRLGLALGLLLALVLALRAKPTVRKERVVRPDSELGERPPEDNQSFQYDHEAFLGKEDSKTFDQLSPDESKERLGKIVDRIDSDGDGLVTTEELKLWIKRVQKRYIYDNVAKVWKDYDRDKDEKISWEEYKQATYGYYLGNPAEFHDSSDHHTFKKMLPRDERRFKASDLDGDLTATREEFTAFLHPEEFEHMKEIVVLETLEDIDKNGDGFVDQDEYIADMFSHEDNGPEPDWVLSEREQFNDFRDLNKDGKLDKDEIRHWILPQDYDHAQAEARHLVYESDKNKDEMLTKEEILDNWNMFVGSQATNYGEDLTKNHDEL | 1.307 | 1.602 | 1.092 | 1.0235 | 1.511 | up |
